What was measured:
[1] = molecular target: hemagglutinin of the Asiatic toad influenza-like virus, ectodomain (Asiatic toad influenza-like virus); experiment: cryo-EM structure
[2] = molecular target: hemagglutinin of the spiny eel influenza-like virus, ectodomain (spiny eel influenza-like virus); experiment: cryo-EM structure

hemagglutinin of the Asiatic toad influenza-like virus, ectodomain (domain or fragment)
stoichiometry N [1]: 3

hemagglutinin of the spiny eel influenza-like virus, ectodomain (domain or fragment)
stoichiometry N [2]: 3

Reference: article PMC12654924
